Values of other authors in publication PMC4379523.

Target: ribosomal protein L3 N-terminal peptide (L3Δ21) 1-21 (Saccharomyces cerevisiae) (UniProt P14126)
Experiment: SPR

UniProt P14126, sequence (P14126 1-21, stated change not applied): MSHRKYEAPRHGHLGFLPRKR

Pokeweed antiviral protein (PAP) (from UniProt P10297)
Kd: 0.0248 µM
